Experimental data taken from US20260125454A1 (SHANGHAI JUNSHI BIOSCIENCES, published 2026).

Columns and labels:
CGRP antigen [1] = test: cell-based or functional assay
Biotin-huCGRPaSA [2] = target: T1, Biotin-huCGRPaSA (human, not fully specified; biotin (position not given)); test: ELISA, transfection supernatant, biotin-CGRP on streptavidin
T1 construct: exact construct ('aSA') not explained; also called Biotin CGRPaSA; full-length (1-37) CGRP
T1 peptide: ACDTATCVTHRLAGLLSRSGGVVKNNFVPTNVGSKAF
Experimental: Streptavidin was diluted to 0.5 μg/mL by using PBS (Hyclone) and added into a plate at 100 μL/well. The plate was incubated in a thermostat incubator at 37° C. for 90 min and then washed. 2% BSA was added to the plate at 200 μL/well, and the plate was incubated in the thermostat incubator at 37° C. for 90 min and washed. Biotin-huCGRPaSA was diluted to 2.0 μg/mL with 2% BSA and added into the plate at 100 μL/well, and the plate was incubated in the thermostat incubator at 37° C. for 60 min. The reference antibody (47-RM) was diluted to 2500 ng/ml with a diluent (2% BSA) and serially 4-fold diluted to 0.15 ng/mL, and the chimeric antibodies were diluted with a cell supernatant stock solution. All the chimeric antibody solutions and the reference antibody solution were added into plates at 80 μL/well, and the plates were incubated in a thermostat incubator at 37° C. for 60 min and washed. An HRP-conjugated mouse anti-human antibody IgG4 (manufacturer: Southern Biotech, Cat. No. 9200-05; Fc specificity) was diluted 5000-fold with 2% BSA and added into the plates at 100 μL/well, and the plates were incubated in the thermostat incubator at 37° C. for 60 min and washed. 0.1 mg/mL chromogenic reagent TMB was carefully added at 100 μL/well to avoid bubbles, and the system was incubated at 37° C. for 10 min away from light for chromogenic reaction. Finally, a 2 M hydrochloric acid solution was added at 100 μL/well to stop the reaction while avoiding bubbles, and the plates were read on a microplate reader within 10 min (the detection wavelength was 450 nm; the reference wavelength was 620 nm).

Biotin-huCGRPaSA [3] = target: T1, Biotin-huCGRPaSA; test: ELISA, purified antibody; relative to reference 47-RM-20190815
Experimental: Streptavidin was diluted to […] by using PBS (Hyclone) and added into a plate at 100 μL/well. The plate was incubated in a thermostat incubator at 37° C. for 90 min and then washed. 2% BSA was added to the plate at 200 μL/well, and the plate was incubated in the thermostat incubator at 37° C. for 90 min and washed. Biotin-huCGRPaSA was diluted to 2.0 μg/mL with 2% BSA and added into the plate at 100 μL/well, and the plate was incubated in the thermostat incubator at 37° C. for 60 min. The chimeric antibodies in Table 3 and reference antibody (47-RM-20190815) were diluted to 1000 ng/ml with a diluent (2% BSA) and serially 10-fold diluted to 1 ng/mL. All the chimeric antibody solutions and the reference antibody solution were added into plates at 100 μL/well, and the plates were incubated in a thermostat incubator at 37° C. for 60 min and washed. An HRP-conjugated mouse anti-human antibody IgG4 (manufacturer: Southern Biotech, Cat. No. 9200-05; Fc specificity) was diluted 5000-fold with 2% BSA and added into the plates at 100 μL/well, and the plates were incubated in the thermostat incubator at 37° C. for 60 min and washed. 0.1 mg/mL chromogenic reagent TMB was carefully added at 100 μL/well to avoid bubbles, and the system was incubated at 37° C. for 5 min away from light for chromogenic reaction. Finally, a 2 M hydrochloric acid solution was added at 100 μL/well to stop the reaction while avoiding bubbles, and the plates were read on a microplate reader within 10 min (the detection wavelength was 450 nm; the reference wavelength was 620 nm). EC₅₀ was fit by using a four-parameter logistic regression (4PL) model.

CGRP antigen [4] = test: cell-based or functional assay; remark: listed apart in the source
Biotin-huCGRPaSA [5] = target: T1, Biotin-huCGRPaSA; test: ELISA, supernatant; relative to chimeric C245
Procedure, shortened: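 Antibodies, including reference chimeric C245, titrated 2.5-fold from 1000 ng/mL and incubated 60 min at 37°C on wells coated with 1.0 μg/mL biotin-CGRPaSA and blocked with 2% BSA. Bound IgG detected with HRP anti-human Fc antibody and TMB, acid-stopped, absorbance 450/620 nm.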

B1: C125 (antibody, V domains shown)
VH: EVQLQQSGPELVKPGASVKISCKASGYTFTDYNMHWVKQSHGKSLEWIGNIYPYNGGTVYNQKFNNKATLTVHTSSSTAYMDLRSLTSDDSAVYYCAREGLGGYWGQGTTLTVSS
VL: DVVLTQSPTSLAVSLGQRATISCQASQNIDGNTYMNWYQQKPGQPPKVLIYSIFNLESGIPARFSGSGSGTHFTLTIHPVEEEDAATYYCQQSNDYPYTFGGGTKLEIK
notes: 2B8-HC1 + 2B8-LC2; chimeric, human constant regions
- Relative binding activity (%) vs Ref(Teva) (CGRP antigen [1]): 76.4%
- OD value (Biotin-huCGRPaSA [2]): 3.08 OD
- Relative activity (%) (Biotin-huCGRPaSA [3]): 62.9%

B2: C276 (antibody, V domains shown)
VH: EVQLQQSGPELVKPGASVKISCKTSGYTFTDYNMHWVKQSHGKSLEWIGYISPYNGGTAYNQKFKFKSTLTVDTSSSTAYMELRSLTSEDSAVYYCAREGLGGYWGQGTTLTVSS
VL: DIVLTQSPDSLAVSLGQRATISCKASQNIDYGGYSYMNWYQQKPGQPPKVLIYSVFNLESGIPARFSGSGSGTDFTLTIHPVEEEDAATYYCQQSNEAPYTFGGGTKLEIR
notes: 3E5-HC + 3H10-LC2; chimeric, human constant regions
- OD value (Biotin-huCGRPaSA [2]): 3.01 OD
- Relative activity (%) (Biotin-huCGRPaSA [3]): 84.1%

B3: C350 (antibody, V domains shown)
VH: EVQLQQSGPELVQPGASVKISCKASGYTFTDYNMHWVKQSHGESLEWIGYIYPYNGHTVYNQKFRNKATMTVDSSSSTAYMDLRSLTSEDSAVYYCAKEGLGGYWGQGTTLTVSS
VL: DIVLTQSPASLAVSLGQRATISCKASQNIDFDGYAYMNWYQHKPGQPPRVLIYSVFNLESGIPARFSGSGSGTDFTLNIHPVEEEDAATYYCQQSHEVPYTFGGGTNLEIK
notes: 3H10-HC + 1F5-LC1; chimeric, human constant regions
- OD value (Biotin-huCGRPaSA [2]): 3 OD
- Relative activity (%) (Biotin-huCGRPaSA [3]): 108%

B4: C131 (antibody, V domains shown)
VH: EVQLQQSGPELVKPGASVKISCKASGYTFTDYNMHWVKQSHGKSLEWIGNIYPYNGGTVYNQKFNNKATLTVHTSSSTAYMDLRSLTSDDSAVYYCAREGLGGYWGQGTTLTVSS
VL: DIVLTQSPASLAVSLGQRATISCKASQNIDYDGYTYLNWYQQKPGQPPKVLIYSIFNLESGIPARFSGSGSGTDFTLNIHPVEEEDAATYYCQQSNEVPYTFGGGTKLEIK
notes: 2B8-HC1 + 3E5-LC; chimeric, human constant regions
- OD value (Biotin-huCGRPaSA [2]): 3.02 OD
- Relative activity (%) (Biotin-huCGRPaSA [3]): 116%

B5: C138 (antibody, V domains shown)
VH: EVQLQQSGPELVKPGASVKISCKASGYTFTDYNMHWVKQSHGKSLEWIGNIYPYNGGTVYNQKFNNKATLTVHTSSSTAYMDLRSLTSDDSAVYYCAREGLGGYWGQGTTLTVSS
VL: DIVLTQSPDSLAVSLGQRATISCKASQNIDYGGYSYMNWYQQKPGQPPKVLIYSVFNLESGIPARFSGSGSGTDFTLTIHPVEEEDAATYYCQQSNEAPYTFGGGTKLEIR
notes: 2B8-HC1 + 3H10-LC2; chimeric, human constant regions
- OD value (Biotin-huCGRPaSA [2]): 3.06 OD
- Relative activity (%) (Biotin-huCGRPaSA [3]): 136%

B6: C263 (antibody, V domains shown)
VH: EVQLQQSGPELVKPGASVKISCKTSGYTFTDYNMHWVKQSHGKSLEWIGYISPYNGGTAYNQKFKFKSTLTVDTSSSTAYMELRSLTSEDSAVYYCAREGLGGYWGQGTTLTVSS
VL: DVVLTQSPTSLAVSLGQRATISCQASQNIDGNTYMNWYQQKPGQPPKVLIYSIFNLESGIPARFSGSGSGTHFTLTIHPVEEEDAATYYCQQSNDYPYTFGGGTKLEIK
notes: 3E5-HC + 2B8-LC2; chimeric, human constant regions
- OD value (Biotin-huCGRPaSA [2]): 3.02 OD
- Relative activity (%) (Biotin-huCGRPaSA [3]): 111%

B7: hu236 (antibody, V domains shown)
VH: QVQLVQSGAEVKKPGASVKVSCKASGYTFTGYTMNWVRQAPGQGLEWMGLINPYIGNTHYNQKFKDRVTFTVDRSSSTAYMELSRLRSDDTAVYYCARELDSGFDYWGQGTLVTVSS
VL: DVVMTQSPDSLAVSLGERATINCRSSQNIVHSNGDTYLEWYQQKPGQPPKLLIYKVSNRFSGVPDRFSGSGSGTDFTLTISSLQAEDVAVYYCYQGSHVPWTFGQGTKLEIK
notes: 3C1 HC-4/3C1 LC-3
- IC50 (CGRP antigen [4]): 0.0514 µg/mL
- relative activity (%) vs C245 (CGRP antigen [4]): 55%
- Relative binding activity, % (Biotin-huCGRPaSA [5]): 68%

B8: hu237 (antibody, V domains shown)
VH: QVQLVQSGAEVKKPGASVKVSCKASGYTFTGYTMNWVRQAPGQGLEWMGLINPYIGNTHYNQKFKDRVTFTVDRSSSTAYMELSRLRSDDTAVYYCARELDSGFDYWGQGTLVTVSS
VL: DVVMTQSPDSLAVSLGERATINCRSSQNIVHSNADTYLEWYQQKPGQPPKLLIYKVSNRFSGVPDRFSGSGSGTDFTLTISSLQAEDVAVYYCYQGSHVPWTFGQGTKLEIK
notes: 3C1 HC-4/3C1 LC-4
- IC50 (CGRP antigen [4]): 0.129 µg/mL
- relative activity (%) vs C245 (CGRP antigen [4]): 22%
- Relative binding activity, % (Biotin-huCGRPaSA [5]): 65%

B9: C48 (antibody, V domains shown)
VH: EVQLQQSGPEVVKPGASVRISCQASGYTFTDYNMHWVKQSHGKSLEWIGYIFPYNGVAVYNRKFRSKATLIIDKSSTTAYMELRSLTSEDSAVYYCAREGLGGYWGQGTTLTVSS
VL: DIVLTQSPASLAVSLGQRATISCKASQNIDYDGYAYLNWYQQKPGQPPKVLIYSVFNLESGIPARFSGSGSGTDFTLNIHPVEEEDAATYYCQQSNEFPYTFGGGTKLEVK
notes: 1B2-HC + 1A2-LC2; chimeric, human constant regions
- Relative binding activity (%) vs Ref(Teva) (CGRP antigen [1]): 93%
- OD value (Biotin-huCGRPaSA [2]): 3.12 OD
- Relative activity (%) (Biotin-huCGRPaSA [3]): 60.4%

B10: C97 (antibody, V domains shown)
VH: EVQLQQSGPELVKPGASVKISCKASGYTFTDYNMHWVKQSHGKSLEWIGYVYPYNGGSAYNQKFKSKATLTVDTSSSIAYMDLHSLTSEDSAVYYCAREGLGGYWGQGTTLAVSS
VL: DIVLTQSPASLAVSLGQRATISCKASQNIDFDGYAYMNWYQHKPGQPPRVLIYSVFNLESGIPARFSGSGSGTDFTLNIHPVEEEDAATYYCQQSHEVPYTFGGGTNLEIK
notes: 2A2-HC + 1F5-LC1; chimeric, human constant regions
- Relative binding activity (%) vs Ref(Teva) (CGRP antigen [1]): 98.4%
- OD value (Biotin-huCGRPaSA [2]): 3.03 OD
- Relative activity (%) (Biotin-huCGRPaSA [3]): 41.9%

B11: C51 (antibody, V domains shown)
VH: EVQLQQSGPEVVKPGASVRISCQASGYTFTDYNMHWVKQSHGKSLEWIGYIFPYNGVAVYNRKFRSKATLIIDKSSTTAYMELRSLTSEDSAVYYCAREGLGGYWGQGTTLTVSS
VL: DIVLTQSPASLAVSLGQRATISCKASQNIDFDGYAYMNWYQHKPGQPPRVLIYSVFNLESGIPARFSGSGSGTDFTLNIHPVEEEDAATYYCQQSHEVPYTFGGGTNLEIK
notes: 1B2-HC + 1F5-LC1; chimeric, human constant regions
- OD value (Biotin-huCGRPaSA [2]): 3.04 OD
- Relative activity (%) (Biotin-huCGRPaSA [3]): 56%

B12: C69 (antibody, V domains shown)
VH: EVQLQQSGPEVVKPGASVRISCQASGYTFTDYNMHWVKQSHGKSLEWIGYIFPYNGVAVYNRKFRSKATLIIDKSSTTAYMELRSLTSEDSAVYYCAREGLGGYWGQGTTLTVSS
VL: DIVLTQSPDSLAVSLGQRATISCKASQNIDYGGYSYMNWYQQKPGQPPKVLIYSVFNLESGIPARFSGSGSGTDFTLTIHPVEEEDAATYYCQQSNEAPYTFGGGTKLEIR
notes: 1B2-HC + 3H10-LC2; chimeric, human constant regions
- Relative binding activity (%) vs Ref(Teva) (CGRP antigen [1]): 42.2%
- OD value (Biotin-huCGRPaSA [2]): 3.07 OD
- Relative activity (%) (Biotin-huCGRPaSA [3]): 221%

B13: hu231 (antibody, human IgG4 S228P, kappa, V domains shown)
VH: QVQLVQSGSELKKPGASVKVSCKASGYTFTGYTMNWVRQAPGQGLEWMGLINPYIGNTHYNQKFKDRFVFSVDRSSSTAYLQISSLKAEDTAVYYCARELDSGFDYWGQGTLVTVSS
VL: DVVMTQTPLSLSVTPGQPASISCRSSQNIVHSNGDTYLEWYLQKPGQSPQLLIYKVSNRFSGVPDRFSGSGSGTDFTLKISRVEAEDVGVYYCYQGSHVPWTFGQGTKLEIKR
- IC50 (CGRP antigen [4]): 0.0284 µg/mL
- relative activity (%) vs C245 (CGRP antigen [4]): 91%
- Relative binding activity, % (Biotin-huCGRPaSA [5]): 68%

B14: hu38 (antibody, V domains shown)
VH: QVQLVQSGAEVKKPGASVKVSCKASGYTFIDFNMHWVRQAPGQRLEWMGYIYPYNGDVVYNQNFTNRVTLTVDTSSSTAYMELSSLRSEDTAVYYCAREGLGGYWGQGTLVTVSS
VL: DIVLTQSPDSLAVSLGERATINCKASQNIDYGGYSYMNWYQQKPGQPPKVLIYSVFNLESGVPDRFSGSGSGTDFTLTISSLQAEDVAVYYCQQSNEAPYTFGQGTKLEIK
notes: 1F5 HC-1/3H10 LC2-1
- IC50 (CGRP antigen [4]): 0.0725 µg/mL
- relative activity (%) vs Ref(TEVA) (CGRP antigen [4]): 50%
- Relative binding activity, % (Biotin-huCGRPaSA [5]): 139%
